Here are results for 2 substances from PMC5063953 (Biochemical Pharmacology, 2016).

Assay [1] has as its system hGIPR. The following applies: R5.40A; ref [71]; cited from earlier work.
The target in assay [2] is N-terminally double c-myc labelled wildtype human GLP-1R (human) (UniProt P43220).
For assay [3], the target named is human GLP-1R E7.63^408A (human) (UniProt P43220).
Assay [4] has as its target human GLP-1R K4.64^288A (human) (UniProt P43220).
The target in assay [5] is human GLP-1R K6.35^346A (human) (UniProt P43220).
Assay [6] addresses human GLP-1R K6.40^351A (human) (UniProt P43220).
The target in assay [7] is human GLP-1R N2.52^182A (human) (UniProt P43220).
The target in assay [8] is human GLP-1R Q7.65^410A (human) (UniProt P43220).
Assay [9] deals with human GLP-1R R2.46^176A (human) (UniProt P43220).
Assay [10] deals with human GLP-1R R3.30^227A (human) (UniProt P43220).
Assay [11] has as its target human GLP-1R R5.40^310A (human) (UniProt P43220).
Assay [12] concerns the target human GLP-1R R5.56^326A (human) (UniProt P43220).
The target of assay [13] is human GLP-1R R6.37^348A (human) (UniProt P43220).
The target in assay [14] is human GLP-1R Y3.53^250A (human) (UniProt P43220).
Assay [15] concerns the target N-terminally double c-myc labelled wildtype human GLP-1R (human) (UniProt P43220). The assay can be described thus: radioligand binding.
In assay [16] the target is human GLP-1R E7.63^408A (human) (UniProt P43220). The assay can be described thus: radioligand binding.
The target in assay [17] is human GLP-1R K4.64^288A (human) (UniProt P43220). The assay can be described thus: radioligand binding.
The target of assay [18] is human GLP-1R K6.35^346A (human) (UniProt P43220). The assay can be described thus: radioligand binding.
In assay [19] the target is human GLP-1R K6.40^351A (human) (UniProt P43220). The assay can be described thus: radioligand binding.
Assay [20] addresses human GLP-1R Q7.65^410A (human) (UniProt P43220). The assay can be described thus: radioligand binding.
Assay [21] addresses human GLP-1R R2.46^176A (human) (UniProt P43220). The assay can be described thus: radioligand binding.
Assay [22] has as its target human GLP-1R R3.30^227A (human) (UniProt P43220). The assay can be described thus: radioligand binding.
Assay [23] deals with human GLP-1R R5.40^310A (human) (UniProt P43220). The assay can be described thus: radioligand binding.
Assay [24] has as its target human GLP-1R R5.56^326A (human) (UniProt P43220). The assay can be described thus: radioligand binding.
Assay [25] concerns the target human GLP-1R R6.37^348A (human) (UniProt P43220). The assay can be described thus: radioligand binding.
Assay [26] addresses human GLP-1R Y3.53^250A (human) (UniProt P43220). The assay can be described thus: radioligand binding.

On to “glucose-dependent insulinotropic peptide (YAEGTFISDYSIAMDKIHQQDFVNWLLAQKGKKNDWKHNITQ; Gastric inhibitory polypeptide; UniProt P09681 52-93, looked up) [GIP]”, for which the “Effect compared with WT: cAMP production” value in [1] was “Reduced GIP mediated cAMP production”.
With “exendin-4 (from UniProt P26349 48-87) (peptide)”, the −Log KA (functional affinity) from operational model fit of cAMP accumulation curves was 9.24 −Log KA in assay [2]; 8.89 −Log KA in [3]; 8.16 −Log KA in [4]; 9.91 −Log KA in assay [5]; 9.31 −Log KA in [6]; 9.16 −Log KA in [7]. Besides, the −Log KA (functional affinity) from operational model fit of cAMP accumulation curves is 9.41 −Log KA in [8]; 8.95 −Log KA in assay [9]; 8.13 −Log KA in assay [10]; 7.79 −Log KA in [11]; 9.22 −Log KA in [12]; 9.37 −Log KA in assay [13]. The −Log KA (functional affinity) from operational model fit of cAMP accumulation curves in [14] was 9.37 −Log KA. In addition, the −Log KA (functional affinity) from operational model fit of iCa2+ mobilisation curves is 7.46 −Log KA in assay [2]; 7.01 −Log KA in assay [3]; 7.78 −Log KA in assay [5]; 7.15 −Log KA in [6]; 7.1 −Log KA in [8]; 7.39 −Log KA in [9]. The −Log KA (functional affinity) from operational model fit of iCa2+ mobilisation curves in [10] was 6.82 −Log KA; in [12] it was 7.1 −Log KA; in [13], 7.08 −Log KA. Moreover, the −Log KA (functional affinity) from operational model fit of pERK1/2 curves is 8.31 −Log KA in assay [2]; 8.35 −Log KA in assay [3]; 7.01 −Log KA in [4]; 8.21 −Log KA in [5]; 8.12 −Log KA in [6]; 8.21 −Log KA in assay [7]. The −Log KA (functional affinity) from operational model fit of pERK1/2 curves is 8.35 −Log KA in assay [8]; 8.12 −Log KA in [9]; 7.31 −Log KA in assay [10]; 7.53 −Log KA in assay [11]; 8.33 −Log KA in [12]; 8.35 −Log KA in [13]. Also, the −Log KA (functional affinity) from operational model fit of pERK1/2 curves in [14] is 8.11 −Log KA. For the same substance, the pKi in assay [15] is 8.87 pKi; in assay [16], 8.29 pKi; in [17], 7.39 pKi; in [18], 9.34 pKi; in assay [19] it was 8.92 pKi; in assay [20] it was 9.08 pKi. Also, the pKi in [21] worked out at 8.61 pKi; in assay [22], 7.6 pKi; in [23], 7.99 pKi; in assay [24], 8.59 pKi; in assay [25] it was 8.8 pKi; in assay [26], 8.68 pKi.
